{"source": "paper PMC2780581", "about": "(Biochemistry, 2008)", "proteins": {"B1": {"name": "(S)-2-hydroxypropylphosphonic acid epoxidase from Pseudomonas syringae (enzyme, Pseudomonas syringae PB-5123, UniProt Q9JN69 1-190, looked up)", "chain": "MDVRTLAVGKAHLEALLATRKMTLEHLQDVRHDATQVYFDGLEHLQNVAQYLAIPLSEFFVGQTQSDLDDGVKIARRNGGFKREEIRGGVHYYTYEHLVTTNQDPGLMALRLDLHSDDEQPLRLNGGHGSREIVYVTRGAVRVRWVGDNDELKEDVLNEGDSIFILPNVPHSFTNHVGGAKSEIIAINYG", "modifications": "Tyr95 highly likely post-translationally hydroxylated to DOPA"}}, "biological_target": "the molecule itself", "experiment": "SEC"}
{"protein": "B1", "values": [{"measurement": "stoichiometry N", "result": 3}]}
